Measured values as given in publication PMC6299665 (Journal for Immunotherapy of Cancer, 2018).

How the values were obtained:
[1] = biological target: T1, human OX40, histidine-tagged recombinant (human, UniProt P43489 29-214); experiment: SPR; BioRAD ProteOn XPR36; His-tagged targets immobilised on Ni-activated HTG chip; analyte in PBS/Tween (0.005%) pH 7.0, 3 min injection, 5 min dissociation, flow 80-100 μl/min; conditions: both partners purified
T1 construct: OX40, human, recombinant; also called hOX40-His; source: bought: Acro Biosystems (SPR); for the ELISAs the vendor is one of Jackson ImmunoResearch, Sino Biological, Acro Biosystems, R&D Systems
T1 sequence (looked up): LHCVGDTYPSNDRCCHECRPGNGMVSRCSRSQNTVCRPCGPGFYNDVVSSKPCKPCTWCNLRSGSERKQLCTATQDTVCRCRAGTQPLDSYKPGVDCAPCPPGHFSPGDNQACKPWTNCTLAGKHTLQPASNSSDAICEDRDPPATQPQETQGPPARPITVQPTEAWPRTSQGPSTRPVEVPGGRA

[2] = biological target: T2, human OX40, histidine-tagged recombinant (human, UniProt P43489 29-214); experiment: SPR
T2 chain: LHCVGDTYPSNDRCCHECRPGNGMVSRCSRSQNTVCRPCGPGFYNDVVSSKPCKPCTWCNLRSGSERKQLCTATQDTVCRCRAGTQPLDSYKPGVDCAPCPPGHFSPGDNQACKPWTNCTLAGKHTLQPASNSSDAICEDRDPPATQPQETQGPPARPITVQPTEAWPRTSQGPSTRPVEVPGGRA

Kd [1]: 9.28 nM
koff [2]: 0.00069 s⁻¹
B1: recombinant human OX40L-Fc (Fc fusion, UniProt P23510 51-183, looked up)
chain: QVSHRYPRIQSIKVQFTEYKKEKGFILTSQKEDEIMKVQNNSVIINCDGFYLISLKGYFSQEVNISLHYQKDEEPLFQLKKVRSVNSLMVASLTYKDKVYLNVTTDNTSLDDFHVNGGELILIHQNPGEFCVL
notes: OX40L, human, recombinant Fc fusion; The background says in general that in OX40L-Fc proteins the Fc precedes OX40L; also called hOX40L-Fc; Fc-OX40L; source: bought: Acro Biosystems
